{"source": "patent US20050079613", "test_system": "three human E2 enzymes UbCH2, UbCH3 and UbCH5a (at least one of these three enzymes)", "data": [{"substance": "GST fusion of the MARCH-VIII RING-CH domain", "values": [{"measurement": "formation of high-molecular weight ubiquitin complexes in vitro (anti-ubiquitin blot)", "result": "The RiNG-CH-GST fusion proteins of all four MARCH-proteins tested were able to catalyze the formation of high-molecular weight molecular ubiquitin complexes in the presence of at least one of these three enzymes"}]}]}
